Measurements: IntAct's records for PubMed 30073165

B1: Cannabinoid receptor 1 (Homo sapiens), P21554 (parent)
chain: MKSILDGLADTTFRTITTDLLYVGSNDIQYEDIKGDMASKLGYFPQKFPLTSFRGSPFQEKMTAGDNPQLVPADQVNITEFYNKSLSSFKENEENIQCGENFMDIECFMVLNPSQQLAIAVLSLTLGTFTVLENLLVLCVILHSRSLRCRPSYHFIGSLAVADLLGSVIFVYSFIDFHVFHRKDSRNVFLFKLGGVTASFTASVGSLFLTAIDRYISIHRPLAYKRIVTRPKAVVAFCLMWTIAIVIAVLPLLGWNCEKLQSVCSDIFPHIDETYLMFWIGVTSVLLLFIVYAYMYILWKAHSHAVRMIQRGTQKSIIIHTSEDGKVQVTRPDQARMDIRLAKTLVLILVVLIICWGPLLAIMVYDVFGKMNKLIKTVFAFCSMLCLLNSTVNPIIYALRSKDLRHAFRSMFPSCEGTAQPLDNSMGDSDCLHKHANNAASVHRAAESCIKSTVKIAKVTMSVSTDTSAEAL
partner: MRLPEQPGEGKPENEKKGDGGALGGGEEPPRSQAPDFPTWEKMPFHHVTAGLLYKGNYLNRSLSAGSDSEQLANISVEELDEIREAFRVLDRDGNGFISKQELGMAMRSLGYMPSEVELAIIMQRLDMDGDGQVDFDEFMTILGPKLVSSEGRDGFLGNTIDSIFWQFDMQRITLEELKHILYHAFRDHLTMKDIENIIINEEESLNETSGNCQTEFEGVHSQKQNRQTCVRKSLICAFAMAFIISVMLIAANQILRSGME

Variants of: B1
Details: with cabp8_human CALN1, Q9BXU9

| Variant | effect of a mutation on the interaction |
| --- | --- |
| T321A;S322A | disrupting interaction strength |
